Test results as given in patent US20250290040A1.

Target: IFNγR-IL2/IL15R signal converter
Assay: cell-based or functional assay

Sequence of IFNγR-IL2/IL15R signal converter (chain, as listed by the source limits assumed, chain 1 of 2): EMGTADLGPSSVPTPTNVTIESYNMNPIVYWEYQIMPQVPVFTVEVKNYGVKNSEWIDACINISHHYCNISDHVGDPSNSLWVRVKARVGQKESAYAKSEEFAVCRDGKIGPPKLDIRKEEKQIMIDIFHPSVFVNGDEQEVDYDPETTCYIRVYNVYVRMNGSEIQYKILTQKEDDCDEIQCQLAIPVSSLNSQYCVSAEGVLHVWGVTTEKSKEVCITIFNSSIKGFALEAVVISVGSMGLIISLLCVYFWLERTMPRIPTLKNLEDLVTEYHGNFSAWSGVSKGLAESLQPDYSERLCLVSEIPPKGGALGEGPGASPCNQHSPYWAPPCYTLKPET
Sequence of IFNγR-IL2/IL15R signal converter (chain, as listed by the source limits assumed, chain 2 of 2): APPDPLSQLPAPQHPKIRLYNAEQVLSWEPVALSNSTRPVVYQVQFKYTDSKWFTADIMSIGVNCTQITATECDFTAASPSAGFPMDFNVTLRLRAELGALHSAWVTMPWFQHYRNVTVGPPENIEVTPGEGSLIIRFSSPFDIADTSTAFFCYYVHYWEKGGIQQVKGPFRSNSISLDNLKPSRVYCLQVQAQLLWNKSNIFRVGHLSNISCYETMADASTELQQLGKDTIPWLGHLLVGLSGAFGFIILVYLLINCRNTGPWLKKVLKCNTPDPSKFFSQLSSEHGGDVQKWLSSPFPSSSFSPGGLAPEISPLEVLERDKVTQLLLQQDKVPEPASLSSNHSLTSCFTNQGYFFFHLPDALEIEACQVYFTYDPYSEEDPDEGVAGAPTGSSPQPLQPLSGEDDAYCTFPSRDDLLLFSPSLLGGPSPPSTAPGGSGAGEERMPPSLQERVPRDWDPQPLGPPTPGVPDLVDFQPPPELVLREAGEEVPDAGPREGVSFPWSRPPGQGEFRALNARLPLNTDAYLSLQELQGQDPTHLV

Substance: IFN-γ (from UniProt P01579 24-166) (ligand)
- cell proliferation (Tag-it violet cell tracking staining), 6 days under IFN-γ treatment: 40%
- percentage of proliferation (flow cytometry, Tag-it Violet), 6 days, 5 ng/mL IFN-γ: 42.3%
